According to US20240059769A1 (BIOLOJIC DESIGN, published 2024):

Columns and labels:
human TSLP = biological target: T1, human TSLP (human, UniProt Q969D9 29-159); assay: SPR
T1 construct: also called hTSLP; rhTSLP

recombinant human IL-13 [1] = biological target: T2, recombinant human IL-13 (human, UniProt P35225 35-146); assay: SPR
T2 construct: also called rh-IL-13; hIL-13

hTSLP-His = hTSLP-His (human, UniProt Q969D9 29-159, limits assumed); assay: cell-based or functional assay
recombinant human IL-13 [2] = biological target: T2, recombinant human IL-13; assay: cell-based or functional assay

T2 sequence (P35225 35-146 limits assumed): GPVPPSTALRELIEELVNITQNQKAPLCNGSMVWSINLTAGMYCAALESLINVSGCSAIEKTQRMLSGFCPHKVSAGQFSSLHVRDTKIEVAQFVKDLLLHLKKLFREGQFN

| Binder | IC50 [pM], STAT5 phosphorylation inhibition in MUTZ5 cells (hTSLP-His) | HEK-IL-13 [nM] (IC50, STAT6 reporter) (recombinant human IL-13 [2]) | further results |
| --- | --- | --- | --- |
| BDG38.091 (antibody, V domains shown, IgG1) VH: QMQLVESGGGVVQPGRSLTLSCAASGFEFRTYGMHWVRQAPGKGLEWLGVIWYDGSNTHYADSVKGRFTITRDNSKNTLNLQMNSLRVEDTAVYYCVRAPQWYLTAEAFDLWGQGTMVTVSS VL: SYILTQPPSVSVAPGETATITCGGNLIGSRLVHWYQQKPGQAPVLVIYDDSDRPSRIPERFSGSNIGNTATLTISDVEAGDEADYYCQVWDHYSNHYVFGGGTKLTVL | 0.507 pM | 0.0832 nM | Kd (human TSLP): 62.1 pM; koff (human TSLP): 8.67e-05 s⁻¹; kon (human TSLP): 1.4e+06 M⁻¹ s⁻¹; Kd (recombinant human IL-13 [1]): 60.4 pM; koff (recombinant human IL-13 [1]): 0.000216 s⁻¹; kon (recombinant human IL-13 [1]): 3.57e+06 M⁻¹ s⁻¹ |
| BDG38.124 (antibody, V domains shown) VH: QMQLVESGGGVVQPGRSLRLSCAASGFEFRTYGMHWVRQAPGKGLEWVGVIWDDGSNTHYADSVKGRFTITRDNSKNTLNLQMNSLRAEDTAVYYCVRAPQWYLTAEAFDLWGQGTMVTVSS VL: SYILTQPPSVSVAPGETATITCGGNLIGARLVHWYQQKPGQAPVLVIYDDSDRPSRIPERFSGSNIGNTATLTISDVEAGDEADYYCQVWDYSSDTYVFGGGTKLTVL |  | 0.0523 nM |  |
| BDG38.122 (antibody, V domains shown) VH: QMQLVESGGGVVQPGRSLRLSCAASGFEFRTYGMHWVRQAPGKGLEWVAVIWDDGSNTHYADSVKGRFTITRDNSKNTLNLQMNSLRAEDTAVYYCVRAPQWYLTAEAFDLWGQGTMVTVSS VL: SYILTQPPSVSVAPGETATITCGGNLIGARLVHWYQQKPGQAPVLVIYDDSDRPSRIPERFSGSNIGNTATLTISRVEEGDEADYYCQVWDYSSDSYVFGGGTKLTVL |  | 0.079 nM |  |
| BDG38.123 (antibody, V domains shown) VH: QMQLVESGGGVVQPGRSLRLSCAASGFEFRTYGMHWVRQAPGKGLEWVAVIWDDGSNTHYADSVKGRFTITRDNSKNTLNLQMNSLRAEDTAVYYCVRAPQWYLTAEAFDLWGQGTMVTVSS VL: SYILTQPPSVSVAPGETATITCGGNLIGARLVHWYQQKPGQAPVLVIYDDSDRPSRIPERFSGSNIGNTATLTISDVEAGDEADYYCQVWDYSSDTYVFGGGTKLTVL |  | 0.044 nM |  |
| BDG38.120 (antibody, V domains shown) VH: QMQLVESGGGVVQPGRSLRLSCAASGFEFRTYGMHWVRQAPGKGLEWVAVIWDDGSNTHYADSVKGRFTITRDNSKNTLNLQMNSLRAEDTAVYYCVRAPQWYLTAEAFDLWGQGTMVTVSS VL: SYILTQPPSVSVAPGETATITCGGNLIGARLVHWYQQKPGQAPVLVIYDDSDRPSRIPERFSGSNSGNTATLTISDVEAGDEADYYCQVWDYSSDHMVFGGGTKLTVL | 0.232 pM | 0.265 nM |  |
| BDG38.086 (antibody, V domains shown) VH: QMQLVESGGGVVQPGRSLRLSCAASGFEFRTYGMHWVRQAPGKGLEWVGVIWYDGSNTHYADSVKGRFTITRDNSKNTLNLQMNSLRAEDTAVYYCVRAPQWYLTAEAFDLWGQGTMVTVSS VL: SYVLTQPPSVSVAPGQTARITCGGNLIGARLVHWYQQKPGQAPVLVVYDDSDRPSRIPERFSGSNIGNTATLTISDVEEGDEADYYCQVWDYSSNTYVFGGGTKLTVL | 830 pM | 0.0174 nM |  |
| BDG38.107 (antibody, V domains shown, IgG1) VH: QMQLVESGGGVVQPGRSLTLSCAASGFEFRTYGMHWVRQAPGKGLEWVGVIWYDGSNTHYADSVKGRFTITRDNSKNTLNLQMNSLRAEDTAVYYCVRAPQWYLTAEAFDLWGQGTMVTVSS VL: SYILTQPPSVSVAPGQTATITCGGNLIGARLVHWYQQKPGQAPVLVIYDDSDRPSRIPERFSGSNIGNTATLTIERVEEGDEADYYCQVWDYSSDSYVFGGGTKLTVL | 0.508 pM | 0.0943 nM | Kd (human TSLP): 151 pM; koff (human TSLP): 8.16e-05 s⁻¹; kon (human TSLP): 541000 M⁻¹ s⁻¹; Kd (recombinant human IL-13 [1]): 2.74 pM; koff (recombinant human IL-13 [1]): 2.02e-05 s⁻¹; kon (recombinant human IL-13 [1]): 7.36e+06 M⁻¹ s⁻¹ |
| BDG38.098 (antibody, V domains shown, IgG1) VH: QMQLVESGGGVVQPGRSLTLSCAASGFEFRTYGMHWVRQAPGKGLEWVAVIWDDGSNTVYADSVKGRFTITRDNSKNTLNLQMNSLRVEDTAVYYCVRAPQWYLTAEAFDLWGQGTMVTVSS VL: SYVLTQPPSVSVAPGQTATITCGGNLIGARLVHWYQQKPGQAPVLVIYDDSDRPSRIPERFSGSNIGNTATLTISRVEAGDEADYYCQVWDYSSDSMVFGGGTKLTVL | 68.8 pM | 0.0884 nM | Kd (human TSLP): 27.5 pM; koff (human TSLP): 0.000237 s⁻¹; kon (human TSLP): 8.6e+06 M⁻¹ s⁻¹; Kd (recombinant human IL-13 [1]): 23.9 pM; koff (recombinant human IL-13 [1]): 0.000138 s⁻¹; kon (recombinant human IL-13 [1]): 5.8e+06 M⁻¹ s⁻¹ |

Continued, in another order:

| IC50 [pM], STAT5 phosphorylation inhibition in MUTZ5 cells (hTSLP-His) | HEK-IL-13 [nM] (IC50, STAT6 reporter) (recombinant human IL-13 [2]) | Binder | further results |
| --- | --- | --- | --- |
|  | 0.151 nM | BDG38.136 (antibody, V domains shown) VH: QMQLVESGGGVVQPGRSLRLSCAASGFEFRTYGMHWVRQAPGKGLEWLAVIWYDGSNTHYADSVKGRFTITRDNSKNTLNLQMNSLRAEDTAVYYCVRAPQWYNSAEAFDLWGQGTMVTVSS VL: SYVLTQPPSVSVAPGQTARITCGGNLIGAKLVHWYQQKPGQAPVLVIYDDSDRPSHIPERFSGSNSGNTATLTISRVEAGDEADYYCQVWDYSSDTMVFGGGTKLTVL |  |
|  | 0.0646 nM | BDG38.130 (antibody, V domains shown) VH: QMQLVESGGGVVQPGRSLTLSCAASGFAFRTYGMHWVRQAPGKGLEWVAVIWDDGSNTHYADSVKGRFTITRDNSKNTLNLQMNSLRVEDTAVYYCVRAPQWYLTAEAFDLWGQGTMVTVSS VL: SYILTQPPSVSVAPGETATITCGGNLIGARLVHWYQQKPGQAPVLVIYDDSDRPSRIPERFSGSNIGNTATLTIERVEAGDEADYYCQVWDYSSNSYVFGGGTKLTVL |  |
|  | 0.029 nM | BDG38.133 (antibody, V domains shown) VH: QMQLVESGGGVVQPGRSLRLSCAASGFEFRTYGMHWVRQAPGKGLEWVAVIWDDGSNTHYADSVKGRFTITRDNSKNTLNLQMNSLRAEDTAVYYCVRAPQWYLTAEAFDLWGQGTMVTVSS VL: SYILTQPPSVSVAPGETATITCGGNLIGARLVHWYQQKPGQAPVLVIYDDSDRPSRIPERFSGSNIGNTATLTISRVEAGDEADYYCQVWDYSSDTYVFGGGTKLTVL |  |
|  | 0.0438 nM | BDG38.143 (antibody, V domains shown) VH: QMQLVESGGGVVQPGRSLRLSCAASGFEFRTYGMHWVRQAPGKGLEWVGVIWDDGSATHYADSVKGRFTITRDNSKNTLNLQMNSLRVEDTAVYYCVRAPQWYLTAEAFDLWGQGTMVTVSS VL: SYILTQPPSVSVAPGQTATITCGGALIGARLVHWYQQKPGQAPVLVIYDDSDRPSRIPERFSGSNIGNTATLTISRVEEGDEADYYCQVWDYSSNTYVFGGGTKLTVL |  |
|  | 0.0584 nM | BDG38.142 (antibody, V domains shown) VH: QMQLVESGGGVVQPGRSLTLSCAASGFEFRTYGMHWVRQAPGKGLEWVAVIWDDGSNTHYADSVKGRFTITRDNSKNTLNLQMNSLRAEDTAVYYCVRAPQWYLTAEAFDLWGQGTMVTVSS VL: SYILTQPPSVSVAPGQTATITCGGNLIGAKLVHWYQQKPGQAPVLVVYDDSDRPSRIPERFSGSNIGNTATLTIERVEEGDEADYYCQVWDYYSHTMVFGGGTKLTVL |  |
|  | 0.0824 nM | BDG38.141 (antibody, V domains shown) VH: QMQLVESGGGVVQPGRSLRLSCAASGFEFRTYGMHWVRQAPGKGLEWVAVIWDDGSNTHYADSVKGRFTITRDNSKNTLNLQMNSLRAEDTAVYYCVRAPQWYLTAEAFDLWGQGTMVTVSS VL: SYILTQPPSVSVAPGETATITCGGALIGSRLVHWYQQKPGQAPVLVIYDDSDRPSRIPERFSGSNIGNTATLTISDVEEGDEADYYCQVWDYYSNHMVFGGGTKLTVL |  |
